Substrate in data set [1]: CC(C)[C@H](C)CC[C@@H](C)[C@H]1CC[C@H]2[C@@H]3CC=C4C[C@@H](O)CC[C@]4(C)[C@H]3CC[C@]12C
The data set can be described thus: HPLC-MS/MS of sterol glucoside formation, Michaelis-Menten fit. It is filed as biochemical, Micromonospora echinospora. The note with it: glycosyl acceptor, 0.8 mM UDP-Glc, 50 mM Tris-HCl pH 7.4 (pH 7.5), 5 mM MgCl2, 30 °C, apparent. From the text:
(§1) HPLC-MS/MS of sterol glucoside formation, Michaelis-Menten fit on MrSGT

Substrate in data set [2]: O=c1ccn([C@@H]2O[C@H](CO[P@@](=O)(O)O[P@@](=O)(O)O[C@H]3O[C@H](CO)[C@@H](O)[C@H](O)[C@H]3O)[C@@H](O)[C@H]2O)c(=O)[nH]1
The description is as above. In kind it is biochemical, Micromonospora echinospora. The note with it: glycosyl donor, 0.6 mM β-sitosterol as acceptor, 50 mM Tris-HCl pH 7.4 (pH 7.5), 5 mM MgCl2, 30 °C, apparent.
Source text: as §1

Substrate in data set [3]: C=C(CC[C@@H](C)[C@H]1CC[C@H]2C3=CC[C@H]4[C@H](C)[C@@H](O)CC[C@]4(C)[C@H]3CC[C@]12C)C(C)C
Described as above. The note with it: glycosyl acceptor, 0.8 mM UDP-Glc, 50 mM Tris-HCl pH 7.4 (pH 7.5), 5 mM MgCl2, 30 °C, apparent. It is filed as biochemical, Micromonospora echinospora.
Source text: as §1

Substrate in data set [4]: [H][C@@]12CC=C3C[C@@H](O)CC[C@]3(C)[C@@]1([H])CC[C@@]1(C)[C@@]2([H])CC[C@]1([H])[C@H](C)CC[C@@H](CC)C(C)C
Described as above. It is filed as biochemical, Micromonospora echinospora. The note with it: glycosyl acceptor, 0.8 mM UDP-Glc, 50 mM Tris-HCl pH 7.4 (pH 7.5), 5 mM MgCl2, 30 °C, apparent.
Source text: as §1

Substrate in data set [5]: C/C=C(\CC[C@@H](C)[C@H]1CC[C@H]2[C@@H]3CC=C4C[C@@H](O)CC[C@]4(C)[C@H]3CC[C@]12C)C(C)C
Described as above. It is filed as biochemical, Micromonospora echinospora. The note with it: glycosyl acceptor, 0.8 mM UDP-Glc, 50 mM Tris-HCl pH 7.4 (pH 7.5), 5 mM MgCl2, 30 °C, apparent.
Source text: as §1

Substrate in data set [6]: CC(C)CCC[C@@H](C)[C@H]1CC[C@H]2[C@@H]3CC=C4C[C@@H](O)CC[C@]4(C)[C@H]3CC[C@]12C
Briefly: purified protein. The note with it: glycosyl acceptor, 0.8 mM UDP-Glc, 50 mM Tris-HCl pH 7.4 (pH 7.5), 5 mM MgCl2, 30 °C, apparent.

B1: MrSGT (Micromonospora echinospora) (protein)
chain: MRILIATAGSRGDVAPYTGLGAALRRAGYDVAVATTDTFARMVRDAGLGFRRLPADTRGHAGVRSNREVVRAAGVHRGTGPGLRRRAVSEGTDLLLLSTTTAPLGWLIGEATGIRSLGVYLQPTAPTADFPPVVTGARSLGRLGNRTAGRLALRMADRIYAEAVAGLRERLCLPPLSAAAMRARQERAGWPVLHGFGTALVPRPADWRPGLEVVGPWWPHHDAGERLPSELEDFLDAGPRPVLVGFGSMAAGDGERLSELAVRALRRAGLRGILQSGNACLAAEGDDVLTVGDVPHALLFPRLAAVVHHGGAGTRRDPAGGRPLGGGPGDRRPEPFWAGRLARIGAAPAPVPFTTLTADGLAGALGRVVGDEAYARAAEKAARHLAAEDGAARV
notes: recombinant His-tagged protein expressed in E. coli BL21(DE3), purified; ORF from fosmid library
For B1, the Km in data set [1] worked out at 280 ± 30 µM; in data set [2], 280 ± 30 µM; in data set [3] it was 510 ± 60 µM; in data set [4], 90 ± 10 µM; in data set [5], 130 ± 20 µM; in data set [6], 450 ± 50 µM. In addition, the kcat in data set [1] worked out at 0.128 ± 0.0165 s⁻¹; in data set [2] it was 0.122 ± 0.0172 s⁻¹; in data set [3], 0.13 ± 0.017 s⁻¹; in data set [4], 0.122 ± 0.0172 s⁻¹; in data set [5], 0.122 ± 0.0273 s⁻¹; in data set [6], 0.132 ± 0.0185 s⁻¹. For the same protein, the kcat/Km in data set [1] came out at 457 M⁻¹ s⁻¹; in data set [3], 257 M⁻¹ s⁻¹; in data set [4], 1350 M⁻¹ s⁻¹; in data set [5], 940 M⁻¹ s⁻¹; in data set [6] it was 292 M⁻¹ s⁻¹.
